Target: T1, Aβ^1-40 amyloid peptide (human, UniProt P05067 672-711)
T1 construct: domain: Aβ^1-40; Plated on 96-well plates in ELISA and IRMA; also called Aβ^1-40 peptide; Aβ^1-40 aggregates
Test: ELISA on plated Aβ^1-40, COS cell medium, detection with biotinylated 9E10 MAb
From the text: FIG. 29. […] The mAβScFv binds to the amyloid peptide, and the 9E10 anti-c-myc MAb binds to the […] epitope fused to the carboxyl terminus of the protein (FIG. 9). The 9E10 MAb is biotinylated, which enables detection with a conjugate of streptavidin and peroxidase. Medium conditioned by COS cells that were transfected with pCD-mAβScFv produced a high signal in the assay, whereas medium from COS cells exposed only to Lipofectamine (LIPO) produced no signal.
The binding of the mAβScFv to the Aβ¹⁻⁴⁰ amyloid peptide was verified with a specific ELISA. The Aβ¹⁻⁴⁰ amyloid peptide was plated in 96-well plates, followed by the addition of the media conditioned by COS cells transfected with the pCD-mAβScFv plasmid and Lipofectamine-2000. The anti-A, ScFv contains a C-terminal 10-amino acid c-myc epitope, which is recognized by the 9E10 MAb (FIG. 29A). The 9E10 MAb is biotinylated, which enables quantitation of the […] binding to Aβ¹⁻⁴⁰ by a peroxidase detection system and A492 readings (FIG. 29A).

B1: mAβScFv, murine single chain Fv antibody against the Aβ peptide, secreted by COS cells transfected with pCD-mAβScFv (scFv)
scFv: QVQLQQSGAELVKPGATVKLSCKASGYSFNSHYIYWVKQRPGQGLEWIGEINPSNGAMNFNEKFKNKATLTVDKSSSTAYMQLSSLTSEDSAVYYCVRDPTSYWGQGTLVTVSAAKTTPKLEEGEFSEARVDIVMTQTPLSLPVSLGDQASISCRSSQSLVHSYGNTYLHWYLQKPGQSPKLLIYKVSNRFSGVPDRFSGSGSGTDFTLKISRVEAEDLGVYFCSQSTHVPYTFGGGTKLEIKRADAAAAGSEQKLISEEDL
notes: Tested as COS cell conditioned medium; No His tag in this construct; VL has Ile at position 2; also called anti-Aβ ScFv; anti-mAβScFv
binding result: binds

— patent publication US20080152645A1 (ARMAGEN TECHNOLOGIES, published 2008)
